Measurements: patent US20250262210A1 (TRUSTEES OF COLUMBIA UNIVERSITY IN THE CITY OF NEW YORK, published 2025)

Legend:
Assay in all cases: IP/MS, LZTR1 R810W-FLAG, U87
[1] = target: T1, SREBF2 (human, UniProt Q12772 1-1141, limits assumed)
T1 sequence (looked up): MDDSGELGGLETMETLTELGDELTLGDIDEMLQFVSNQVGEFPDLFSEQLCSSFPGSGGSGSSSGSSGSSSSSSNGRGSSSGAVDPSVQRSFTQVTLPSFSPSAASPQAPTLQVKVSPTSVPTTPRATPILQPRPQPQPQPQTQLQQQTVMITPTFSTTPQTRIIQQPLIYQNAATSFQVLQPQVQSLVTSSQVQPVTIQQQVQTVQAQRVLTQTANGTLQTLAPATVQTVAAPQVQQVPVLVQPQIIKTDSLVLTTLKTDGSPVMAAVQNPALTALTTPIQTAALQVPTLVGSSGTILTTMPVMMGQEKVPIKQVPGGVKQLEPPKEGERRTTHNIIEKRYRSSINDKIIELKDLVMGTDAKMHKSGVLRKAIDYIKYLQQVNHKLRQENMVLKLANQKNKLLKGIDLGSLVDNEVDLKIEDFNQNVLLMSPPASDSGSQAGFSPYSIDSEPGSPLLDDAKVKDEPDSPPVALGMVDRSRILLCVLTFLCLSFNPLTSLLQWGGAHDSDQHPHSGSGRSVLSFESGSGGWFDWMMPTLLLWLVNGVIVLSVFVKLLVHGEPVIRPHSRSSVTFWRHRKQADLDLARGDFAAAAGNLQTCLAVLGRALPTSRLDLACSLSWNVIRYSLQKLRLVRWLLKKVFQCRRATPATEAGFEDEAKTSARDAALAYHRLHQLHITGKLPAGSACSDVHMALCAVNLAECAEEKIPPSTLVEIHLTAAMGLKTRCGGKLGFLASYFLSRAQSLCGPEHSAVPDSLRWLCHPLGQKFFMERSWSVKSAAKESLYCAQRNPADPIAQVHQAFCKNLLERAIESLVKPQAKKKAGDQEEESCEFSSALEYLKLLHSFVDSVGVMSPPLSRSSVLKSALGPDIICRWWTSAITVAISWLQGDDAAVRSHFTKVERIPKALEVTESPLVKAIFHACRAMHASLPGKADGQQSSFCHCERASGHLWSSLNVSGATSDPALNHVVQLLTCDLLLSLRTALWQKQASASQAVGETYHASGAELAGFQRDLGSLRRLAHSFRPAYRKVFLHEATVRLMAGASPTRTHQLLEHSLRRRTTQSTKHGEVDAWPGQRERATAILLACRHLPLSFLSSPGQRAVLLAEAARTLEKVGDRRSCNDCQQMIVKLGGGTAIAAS
In short: (§1)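 Read-out: spectral counts from LC-MS/MS (Orbitrap Fusion) after MaxQuant identification. Variable modifications were Met oxidation, protein N-terminal acetylation and N/Q deamidation.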

[2] = target: CRYBG1 (human, UniProt Q9Y4K1 1-2131, limits assumed)
In short: as §1

[3] = target: VPS13A (human, UniProt Q96RL7 1-3174, limits assumed)
In short: as §1

[4] = target: T2, EMC1 (human, UniProt Q8N766 23-993, limits assumed)
T2 sequence (looked up): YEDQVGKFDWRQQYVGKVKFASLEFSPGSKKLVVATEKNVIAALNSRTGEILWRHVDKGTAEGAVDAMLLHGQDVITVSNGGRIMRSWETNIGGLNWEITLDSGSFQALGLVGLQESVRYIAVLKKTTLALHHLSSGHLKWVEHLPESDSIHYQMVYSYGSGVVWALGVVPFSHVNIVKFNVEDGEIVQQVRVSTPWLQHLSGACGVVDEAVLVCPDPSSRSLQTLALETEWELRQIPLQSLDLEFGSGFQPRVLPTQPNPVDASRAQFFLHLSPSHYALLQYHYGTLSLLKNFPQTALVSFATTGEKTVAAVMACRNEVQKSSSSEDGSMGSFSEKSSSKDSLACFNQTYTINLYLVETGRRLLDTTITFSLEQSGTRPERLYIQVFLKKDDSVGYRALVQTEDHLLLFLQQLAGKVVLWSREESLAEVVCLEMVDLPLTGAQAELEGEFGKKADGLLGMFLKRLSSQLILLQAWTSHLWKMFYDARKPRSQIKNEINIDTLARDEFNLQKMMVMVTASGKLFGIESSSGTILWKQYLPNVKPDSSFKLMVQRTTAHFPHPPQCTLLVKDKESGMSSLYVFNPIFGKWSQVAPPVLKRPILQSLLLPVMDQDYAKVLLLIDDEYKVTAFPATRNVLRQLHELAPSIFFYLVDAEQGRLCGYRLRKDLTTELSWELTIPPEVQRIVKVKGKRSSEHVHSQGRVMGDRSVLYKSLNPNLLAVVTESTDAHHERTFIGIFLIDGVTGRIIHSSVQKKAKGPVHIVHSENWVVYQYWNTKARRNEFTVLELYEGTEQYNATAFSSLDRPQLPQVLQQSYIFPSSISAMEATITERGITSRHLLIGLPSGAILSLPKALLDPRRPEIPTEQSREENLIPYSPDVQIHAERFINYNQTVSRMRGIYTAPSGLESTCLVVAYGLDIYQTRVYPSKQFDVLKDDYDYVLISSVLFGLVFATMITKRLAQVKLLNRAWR
In short: as §1

[5] = target: MTOR (human, UniProt P42345 1-2549)
In short: as §1

Measured: binding result

Chain of VPS13A (Q96RL7 whole entry): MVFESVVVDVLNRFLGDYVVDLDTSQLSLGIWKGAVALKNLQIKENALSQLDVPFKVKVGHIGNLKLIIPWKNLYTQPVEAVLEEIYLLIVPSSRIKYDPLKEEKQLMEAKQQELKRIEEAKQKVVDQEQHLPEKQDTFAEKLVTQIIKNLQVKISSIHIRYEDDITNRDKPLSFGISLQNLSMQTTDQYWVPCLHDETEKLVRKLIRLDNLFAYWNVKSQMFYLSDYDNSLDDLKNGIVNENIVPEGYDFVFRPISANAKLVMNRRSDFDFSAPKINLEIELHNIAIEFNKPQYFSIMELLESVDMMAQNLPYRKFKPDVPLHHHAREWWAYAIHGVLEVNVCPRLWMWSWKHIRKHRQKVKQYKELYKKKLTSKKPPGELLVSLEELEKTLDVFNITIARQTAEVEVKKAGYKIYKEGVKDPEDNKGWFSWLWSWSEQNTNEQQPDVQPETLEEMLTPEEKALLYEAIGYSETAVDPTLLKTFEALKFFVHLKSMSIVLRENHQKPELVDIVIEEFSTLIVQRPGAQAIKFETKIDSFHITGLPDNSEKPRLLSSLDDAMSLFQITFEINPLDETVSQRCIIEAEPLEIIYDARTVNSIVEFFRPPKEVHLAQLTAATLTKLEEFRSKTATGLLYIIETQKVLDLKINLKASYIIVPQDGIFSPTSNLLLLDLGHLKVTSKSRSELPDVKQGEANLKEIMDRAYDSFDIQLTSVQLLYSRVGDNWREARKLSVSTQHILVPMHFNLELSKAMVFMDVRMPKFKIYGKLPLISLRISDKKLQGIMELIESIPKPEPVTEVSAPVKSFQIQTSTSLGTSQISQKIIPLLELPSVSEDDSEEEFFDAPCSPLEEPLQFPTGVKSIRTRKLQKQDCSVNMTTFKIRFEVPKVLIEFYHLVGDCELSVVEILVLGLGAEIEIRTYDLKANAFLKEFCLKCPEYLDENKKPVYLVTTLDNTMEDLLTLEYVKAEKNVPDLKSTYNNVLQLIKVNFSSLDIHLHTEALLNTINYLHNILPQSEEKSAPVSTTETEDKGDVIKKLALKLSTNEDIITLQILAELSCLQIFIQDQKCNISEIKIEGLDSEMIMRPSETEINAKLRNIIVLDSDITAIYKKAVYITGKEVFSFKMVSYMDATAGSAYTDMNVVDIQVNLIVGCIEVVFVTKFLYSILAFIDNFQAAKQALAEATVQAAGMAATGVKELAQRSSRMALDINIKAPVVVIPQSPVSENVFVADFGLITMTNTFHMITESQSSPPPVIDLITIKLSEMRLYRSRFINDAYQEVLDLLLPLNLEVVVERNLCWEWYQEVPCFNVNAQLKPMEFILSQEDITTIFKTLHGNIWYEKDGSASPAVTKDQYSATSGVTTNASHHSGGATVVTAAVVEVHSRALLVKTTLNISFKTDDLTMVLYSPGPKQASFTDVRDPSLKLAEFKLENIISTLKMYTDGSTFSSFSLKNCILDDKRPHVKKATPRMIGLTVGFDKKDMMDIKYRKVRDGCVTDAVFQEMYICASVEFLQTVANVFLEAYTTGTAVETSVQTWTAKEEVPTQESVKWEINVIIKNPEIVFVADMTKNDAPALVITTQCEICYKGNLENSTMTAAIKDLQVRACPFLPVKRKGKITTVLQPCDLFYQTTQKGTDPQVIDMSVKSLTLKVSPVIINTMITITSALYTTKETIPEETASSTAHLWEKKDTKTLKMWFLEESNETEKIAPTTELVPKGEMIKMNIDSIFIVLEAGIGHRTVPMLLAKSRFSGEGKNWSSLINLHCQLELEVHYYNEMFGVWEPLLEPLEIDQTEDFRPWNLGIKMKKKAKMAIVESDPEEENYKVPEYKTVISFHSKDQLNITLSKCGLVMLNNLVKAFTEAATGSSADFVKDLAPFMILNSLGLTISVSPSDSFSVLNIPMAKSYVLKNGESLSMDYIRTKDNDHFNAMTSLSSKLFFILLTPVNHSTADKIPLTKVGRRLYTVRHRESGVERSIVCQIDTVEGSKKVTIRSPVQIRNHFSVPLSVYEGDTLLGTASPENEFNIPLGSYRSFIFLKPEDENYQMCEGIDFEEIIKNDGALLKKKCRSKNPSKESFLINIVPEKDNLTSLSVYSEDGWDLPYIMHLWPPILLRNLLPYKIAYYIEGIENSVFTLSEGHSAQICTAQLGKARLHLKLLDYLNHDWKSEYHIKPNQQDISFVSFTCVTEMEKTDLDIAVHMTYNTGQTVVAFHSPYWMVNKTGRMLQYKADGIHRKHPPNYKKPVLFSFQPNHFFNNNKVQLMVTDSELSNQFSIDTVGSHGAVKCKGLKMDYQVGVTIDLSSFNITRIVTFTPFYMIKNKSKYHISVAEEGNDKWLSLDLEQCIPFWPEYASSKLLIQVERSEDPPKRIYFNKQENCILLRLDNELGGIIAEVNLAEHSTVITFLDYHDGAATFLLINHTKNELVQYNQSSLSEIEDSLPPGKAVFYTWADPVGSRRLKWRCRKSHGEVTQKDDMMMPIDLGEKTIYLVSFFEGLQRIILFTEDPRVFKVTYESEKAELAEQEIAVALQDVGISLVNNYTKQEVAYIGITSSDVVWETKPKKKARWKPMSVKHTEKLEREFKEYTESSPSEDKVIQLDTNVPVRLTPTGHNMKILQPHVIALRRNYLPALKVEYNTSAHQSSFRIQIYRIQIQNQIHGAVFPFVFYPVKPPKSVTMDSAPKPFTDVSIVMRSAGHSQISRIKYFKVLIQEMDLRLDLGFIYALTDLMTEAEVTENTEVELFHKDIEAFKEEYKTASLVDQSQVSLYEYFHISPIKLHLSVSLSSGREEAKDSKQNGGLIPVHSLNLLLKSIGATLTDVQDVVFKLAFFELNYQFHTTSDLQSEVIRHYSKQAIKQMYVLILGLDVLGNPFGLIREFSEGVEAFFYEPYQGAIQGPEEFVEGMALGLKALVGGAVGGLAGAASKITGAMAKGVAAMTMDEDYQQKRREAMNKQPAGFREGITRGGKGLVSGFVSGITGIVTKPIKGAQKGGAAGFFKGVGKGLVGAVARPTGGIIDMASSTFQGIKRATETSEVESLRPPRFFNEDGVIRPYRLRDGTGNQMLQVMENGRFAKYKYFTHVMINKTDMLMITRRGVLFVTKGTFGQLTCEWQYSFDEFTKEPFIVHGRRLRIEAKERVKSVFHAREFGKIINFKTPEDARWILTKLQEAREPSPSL

B1: LZTR1 R810W-FLAG (other, human, UniProt Q8N653 1-840, looked up)
chain: MAGPGSTGGQIGAAALAGGARSKVAPSVDFDHSCSDSVEYLTLNFGPFETVHRWRRLPPCDEFVGARRSKHTVVAYKDAIYVFGGDNGKTMLNDLLRFDVKDCSWCRAFTTGTPPAPRYHHSAVVYGSSMFVFGGYTGDIYSNSNLKNKNDLFEYKFATGQWTEWKIEGRLPVARSAHGATVYSDKLWIFAGYDGNARLNDMWTIGLQDRELTCWEEVAQSGEIPPSCCNFPVAVCRDKMFVFSGQSGAKITNNLFQFEFKDKTWTRIPTEHLLRGSPPPPQRRYGHTMVAFDRHLYVFGGAADNTLPNELHCYDVDFQTWEVVQPSSDSEVGGAEVPERACASEEVPTLTYEERVGFKKSRDVFGLDFGTTSAKQPTQPASELPSGRLFHAAAVISDAMYIFGGTVDNNIRSGEMYRFQFSCYPKCTLHEDYGRLWESRQFCDVEFVLGEKEECVQGHVAIVTARSRWLRRKITQARERLAQKLEQEAAPVPREAPGVAAGGARPPLLHVAIREAEARPFEVLMQFLYTDKIKYPRKGHVEDVLLIMDVYKLALSFQLCRLEQLCRQYIEASVDLQNVLVVCESAARLQLSQLKEHCLNFVVKESHFNQVIMMKEFERLSSPLIVEIVRRKQQPPPRTPLDQPVDIGTSLIQDMKAYLEGAGAEFCDITLLLDGHPRPAHKAILAARSSYFEAMFRSFMPEDGQVNISIGEMVPSRQAFESMLRYIYYGEVNMPPEDSLYLFAAPYYYGFYNNRLQAYCKQNLEMNVTVQNVLQILEAADKTQALDMKRHCLHIIVHQFTKVSKLPTLWSLSQQLLLDIIDSLASHISDKQCAELGADI
notes: Stably expressed in U87 cells by lentivirus; also called LZTR1-FLAG-R810W; LZTR1 RW; not shown: FLAG tag
binds: [1] | [2] | [3] | [4] | [5]
